US11834499 (University of California, dated 2023)

What was measured:
[1] = target: T1, human Claudin-18.2 (CLDN18.2) (human); experiment: FACS, 1.5 ug antibody, HEK293T-CLDN18.2 C12 clone cells
T1 construct: On cells: fused to GFP in engineered HEK293T cells (clone C12), endogenous in HUPT4 and SNU601 cells; also called human CLDN18.2

[2] = target: T1, human Claudin-18.2 (CLDN18.2); experiment: FACS, 1.5 ug antibody, HUPT4 cells (endogenous CLDN18.2)
Method: FACS assays were carried out to determine relative antigen binding strengths of the humanized antibodies (at either 1.5 μg or 0.3 μg) for binding to CLDN18.2 as expressed by the indicated cancer cell lines.

[3] = target: T1, human Claudin-18.2 (CLDN18.2); experiment: flow cytometry; HEK293T CLDN18.2 over HEK293T parental [Cont.]
Method: (§1) The samples were then measured by Intellicyt® iQue Advanced Flow Cytometry Platform.

[4] = target: T1, human Claudin-18.2 (CLDN18.2); experiment: flow cytometry; HUPT4 over M202 [Cont.]
Method: as §1

Binder	FACS signal (relative antigen binding strength) [1]	FACS signal (relative antigen binding strength) [2]	ratio OE [3]	ratio native [4]
Ab 360 (antibody, V domains shown, also called 360-Chim) VH: VVQLQQSGPELVKPGASVKMSCKASGYTFTSYLMHWVRQKPGLGLDWIGYINPYNDGTNYNAKFIDKATLTSDKTSSTAYMELSSLTSEDSAIYYCTRGDYWGQGTSVTVSS VL: DIVMTQSPSSLAVTAGEQVTMSCKSSQSLLNSGNQKNYLTWYQQKPGQPPKLLIYWASIRQSGVPDRFTGSGSGTDFTLTISSVQAEDLAVYYCLNDYGFPLTFGAGTKLELK	117000	26200		
HuAb360-3 (antibody, V domains shown) VH: QVQLVQSGAEVKKPGASVKMSCKASGYTFTSYLMHWVRQAPGQGLEWIGYINPYNDGTNYAQKFQGRATLTSDTSTSTAYMELSSLRSEDTAVYYCTRGDYWGQGTLVTVSS VL: DIVMTQSPDSLAVSLGERATINCKSSQSLLNSGNQKNYLTWYQQKPGQPPKLLIYWASIRQSGVPDRFSGSGSGTDFTLTISSLQAEDVAVYYCLNDYGFPLTFGQGTKLEIK	157000	27400		
HuAb360-1 (antibody, V domains shown) VH: QVQLVQSGAEVKKPGASVKVSCKASGYTFTSYLMHWVRQAPGQGLEWIGYINPYNDGTNYAQKFQGRVTMTSDTSTSTVYMELSSLRSEDTAVYYCTRGDYWGQGTLVTVSS VL: DIVMTQSPDSLAVSLGERATINCKSSQSLLNSGNQKNYLTWYQQKPGQPPKLLIYWASIRQSGVPDRFSGSGSGTDFTLTISSLQAEDVAVYYCLNDYGFPLTFGQGTKLEIK	120000	26400		
HuAb360-4 (antibody, V domains shown) VH: QVQLVQSGAEVKKPGASVKMSCKASGYTFTSYLMHWVRQAPGQGLEWIGYINPYNDGTNYAQKFQGRATLTSDTSTSTAYMELSSLRSEDTAVYYCTRGDYWGQGTLVTVSS VL: DIVMTQSPDSLAVSLGERVTMNCKSSQSLLNSGNQKNYLTWYQQKPGQPPKLLIYWASIRQSGVPDRFSGSGSGTDFTLTISSVQAEDVAVYYCLNDYGFPLTFGQGTKLEIK	149000	28000		
HuAb360-5 (antibody, V domains shown) VH: QVQLVQSGAEVKKPGASVKMSCKASGYTFTSYLMHWVRQAPGQGLEWIGYINPYNDGTNYAQKFQGRATLTSDKSTSTAYMELSSLRSEDTAVYYCTRGDYWGQGTLVTVSS VL: DIVMTQSPDSLAVSLGERATINCKSSQSLLNSGNQKNYLTWYQQKPGQPPKLLIYWASIRQSGVPDRFSGSGSGTDFTLTISSLQAEDVAVYYCLNDYGFPLTFGQGTKLEIK	138000	28600		
HuAb360-6 (antibody, V domains shown) VH: QVQLVQSGAEVKKPGASVKMSCKASGYTFTSYLMHWVRQAPGQGLEWIGYINPYNDGTNYAQKFQGRATLTSDKSTSTAYMELSSLRSEDTAVYYCTRGDYWGQGTLVTVSS VL: DIVMTQSPDSLAVSLGERVTMNCKSSQSLLNSGNQKNYLTWYQQKPGQPPKLLIYWASIRQSGVPDRFSGSGSGTDFTLTISSVQAEDVAVYYCLNDYGFPLTFGQGTKLEIK	159000	34600		
HuAb360-2 (antibody, V domains shown) VH: QVQLVQSGAEVKKPGASVKVSCKASGYTFTSYLMHWVRQAPGQGLEWIGYINPYNDGTNYAQKFQGRVTMTSDTSTSTVYMELSSLRSEDTAVYYCTRGDYWGQGTLVTVSS VL: DIVMTQSPDSLAVSLGERVTMNCKSSQSLLNSGNQKNYLTWYQQKPGQPPKLLIYWASIRQSGVPDRFSGSGSGTDFTLTISSVQAEDVAVYYCLNDYGFPLTFGQGTKLEIK	138000	24900		
02-0307-5h antibody (antibody, V domains shown, also called 02-h1F06-5h) VH: EVQLLESGGGLVQPGGSLRLSCAASGFTFSSYTMSWVRQAPGKGLEWVATIIIGGSYTYYADSVKGRFTISRDNSKNTLYLQMNSLRAEDTAVYYCTRLVKGNAMDYWGQGTLVTVSS VL: DIVMTQSPDSLAVSLGERVTMNCKSSQSLLQSGNQKNYLSWYQQKPGQPPKLLFYWASTRESGVPDRFSGSGSGTDFTLTISSVQAEDVAVYYCQNDYSYPFTFGQGTKLEIK			408	121
02-0307-9h antibody (antibody, V domains shown, also called 02-h1F06-9h) VH: EVQLLESGGGLVQPGGSLRLSCAASGFTFSSYTMSWVRQAPGKGLEWVATIIIGGSYTYYADSVKGRFTISRDNSKNTLYLQMNSLRAEDTAVYYCTRLVKGQAMDYWGQGTLVTVSS VL: DIVMTQSPDSLAVSLGERVTMNCKSSQSLLSSGNQKNYLSWYQQKPGQPPKLLFYWASTRESGVPDRFSGSGSGTDFTLTISSVQAEDVAVYYCQNDYSYPFTFGQGTKLEIK			273	45.1
02-0307-12h antibody (antibody, V domains shown, also called 02-h1F06-12h) VH: EVQLLESGGGLVQPGGSLRLSCAASGFTFSSYTMSWVRQAPGKGLEWVATIIIGGSYTYYADSVKGRFTISRDNSKNTLYLQMNSLRAEDTAVYYCTRLVKGSAMDYWGQGTLVTVSS VL: DIVMTQSPDSLAVSLGERVTMNCKSSQSLLSSGNQKNYLSWYQQKPGQPPKLLFYWASTRESGVPDRFSGSGSGTDFTLTISSVQAEDVAVYYCQNDYSYPFTFGQGTKLEIK			183	9.89
02-0307-11h antibody (antibody, V domains shown, also called 02-h1F06-11h) VH: EVQLLESGGGLVQPGGSLRLSCAASGFTFSSYTMSWVRQAPGKGLEWVATIIIGGSYTYYADSVKGRFTISRDNSKNTLYLQMNSLRAEDTAVYYCTRLVKGSAMDYWGQGTLVTVSS VL: DIVMTQSPDSLAVSLGERVTMNCKSSQSLLQSGNQKNYLSWYQQKPGQPPKLLFYWASTRESGVPDRFSGSGSGTDFTLTISSVQAEDVAVYYCQNDYSYPFTFGQGTKLEIK			40	1.52
02-0307-10h antibody (antibody, V domains shown, also called 02-h1F06-10h) VH: EVQLLESGGGLVQPGGSLRLSCAASGFTFSSYTMSWVRQAPGKGLEWVATIIIGGSYTYYADSVKGRFTISRDNSKNTLYLQMNSLRAEDTAVYYCTRLVKGSAMDYWGQGTLVTVSS VL: DIVMTQSPDSLAVSLGERVTMNCKSSQSLLNSGNQKNYLSWYQQKPGQPPKLLFYWASTRESGVPDRFSGSGSGTDFTLTISSVQAEDVAVYYCQNDYSYPFTFGQGTKLEIK			202	6.42
02-0307-7h antibody (antibody, V domains shown, also called 02-h1F06-7h) VH: EVQLLESGGGLVQPGGSLRLSCAASGFTFSSYTMSWVRQAPGKGLEWVATIIIGGSYTYYADSVKGRFTISRDNSKNTLYLQMNSLRAEDTAVYYCTRLVKGQAMDYWGQGTLVTVSS VL: DIVMTQSPDSLAVSLGERVTMNCKSSQSLLNSGNQKNYLSWYQQKPGQPPKLLFYWASTRESGVPDRFSGSGSGTDFTLTISSVQAEDVAVYYCQNDYSYPFTFGQGTKLEIK			326	22.5
02-0307-8h antibody (antibody, V domains shown, also called 02-h1F06-8h) VH: EVQLLESGGGLVQPGGSLRLSCAASGFTFSSYTMSWVRQAPGKGLEWVATIIIGGSYTYYADSVKGRFTISRDNSKNTLYLQMNSLRAEDTAVYYCTRLVKGQAMDYWGQGTLVTVSS VL: DIVMTQSPDSLAVSLGERVTMNCKSSQSLLQSGNQKNYLSWYQQKPGQPPKLLFYWASTRESGVPDRFSGSGSGTDFTLTISSVQAEDVAVYYCQNDYSYPFTFGQGTKLEIK			166	12.2
